Laboratory results as given in article PMC3152195.

Target: GST-fusion protein containing the UBA domain of Dsk2p (residues 328–373) (UniProt P48510)
Test: pull-down

UniProt P48510, sequence (P48510 328-373): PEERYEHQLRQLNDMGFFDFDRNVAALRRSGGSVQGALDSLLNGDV

percent of total cellular GLUT4 pulled down by GST–UBA (taken as ubiquitinated): 0.1%
Substance: endogenous GLUT4 in 3T3-L1 adipocytes (ubiquitinated) (from UniProt P14142 1-509) (natural protein)
